Experimental data reported in article PMC9482650, “Quantitative fragmentomics allow affinity mapping of interactomes” (Nature Communications, 2022).

Legend:
Assay in all cases: holdup assay
Set-up in all cases: key: below the threshold = too weak to quantify, mostly under pKd 3.1 to 4
Inadl_4, Q8NI35 = target: Inadl_4, Q8NI35
Inadl_1, Q8NI35 = target: Inadl_1, Q8NI35
MAGI1_1, Q96QZ7 = target: MAGI1_1, Q96QZ7
HTRA2, O43464 = target: HTRA2, O43464
APBA2_2, Q99767 = target: T1, APBA2_2, Q99767
T1 sequence (Q99767 654-744, limits assumed, looked up): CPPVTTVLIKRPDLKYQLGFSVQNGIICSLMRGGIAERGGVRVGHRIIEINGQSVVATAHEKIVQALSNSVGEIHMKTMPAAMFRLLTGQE

GRIP2_5, Q9C0E4 = target: GRIP2_5, Q9C0E4
PICK1, Q9NRD5 = target: PICK1, Q9NRD5
DLG1_3, Q12959 = target: DLG1_3, Q12959
HTRA1, Q92743 = target: HTRA1, Q92743
Inadl_9, Q8NI35 = target: Inadl_9, Q8NI35
GRID2IP_2, A4D2P6 = target: GRID2IP_2, A4D2P6
TJP1_3, Q07157 = target: TJP1_3, Q07157
MPDZ_10, O75970 = target: T2, MPDZ_10, O75970
T2 sequence (O75970 1624-1722, limits assumed, looked up): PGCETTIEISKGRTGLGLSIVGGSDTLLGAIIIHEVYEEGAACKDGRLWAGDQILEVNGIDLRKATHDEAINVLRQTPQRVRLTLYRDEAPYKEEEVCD

MAST1, Q9Y2H9 = target: MAST1, Q9Y2H9
NHERF3_3, Q5T2W1 = target: T3, NHERF3_3, Q5T2W1
T3 sequence (Q5T2W1 238-333, limits assumed, looked up): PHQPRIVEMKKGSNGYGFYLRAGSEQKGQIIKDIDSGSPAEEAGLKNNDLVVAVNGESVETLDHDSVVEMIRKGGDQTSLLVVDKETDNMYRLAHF

LNX2_3, Q8N448 = target: T4, LNX2_3, Q8N448
T4 sequence (Q8N448 463-564, limits assumed, looked up): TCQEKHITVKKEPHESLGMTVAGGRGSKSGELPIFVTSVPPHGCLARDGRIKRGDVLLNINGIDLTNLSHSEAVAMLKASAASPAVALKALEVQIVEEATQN

LNX2_2, Q8N448 = target: T5, LNX2_2, Q8N448
T5 sequence (Q8N448 334-432, limits assumed, looked up): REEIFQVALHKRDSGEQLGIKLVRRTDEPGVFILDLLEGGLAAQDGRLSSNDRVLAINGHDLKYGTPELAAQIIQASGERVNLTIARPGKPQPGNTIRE

HTRA3, P83110 = target: T6, HTRA3, P83110
T6 sequence (P83110 354-453, limits assumed, looked up): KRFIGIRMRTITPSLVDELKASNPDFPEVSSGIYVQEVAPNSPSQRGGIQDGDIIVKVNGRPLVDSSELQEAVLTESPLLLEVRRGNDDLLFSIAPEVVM

TJP1_2, Q07157 = target: TJP1_2, Q07157
SNX27, Q96L92 = target: SNX27, Q96L92
ARHGEF11, O15085 = target: T7, ARHGEF11, O15085
T7 sequence (O15085 42-136, limits assumed, looked up): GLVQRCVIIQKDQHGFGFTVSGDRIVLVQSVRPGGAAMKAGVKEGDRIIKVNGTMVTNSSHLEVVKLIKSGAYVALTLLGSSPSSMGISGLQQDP

DFNB31_3, Q9P202 = target: T8, DFNB31_3, Q9P202
T8 sequence (Q9P202 811-907, limits assumed, looked up): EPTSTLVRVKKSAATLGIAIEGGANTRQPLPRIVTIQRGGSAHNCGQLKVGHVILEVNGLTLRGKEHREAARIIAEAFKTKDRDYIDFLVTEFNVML

MAGI3_2, Q5TCQ9 = target: MAGI3_2, Q5TCQ9
DFNB31_2, Q9P202 = target: T9, DFNB31_2, Q9P202
T9 sequence (Q9P202 274-371, limits assumed, looked up): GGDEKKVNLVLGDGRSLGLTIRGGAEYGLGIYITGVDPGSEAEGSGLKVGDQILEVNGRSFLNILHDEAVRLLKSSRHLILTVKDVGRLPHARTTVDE

GORASP2, Q9H8Y8 = target: GORASP2, Q9H8Y8
IL16_3, Q14005 = target: IL16_3, Q14005
GRIP2_4, Q9C0E4 = target: GRIP2_4, Q9C0E4
GOPC, Q9HD26 = target: GOPC, Q9HD26
Inadl_5, Q8NI35 = target: Inadl_5, Q8NI35
[1] = plain residues with an end cap or a label only (N-terminal biotin on a linker: ado-ado)
[2] = plain residues with an end cap or a label only (N-terminal biotin on a linker: ttds)

Chain of MAGI1_1, Q96QZ7 (Q96QZ7 1-106): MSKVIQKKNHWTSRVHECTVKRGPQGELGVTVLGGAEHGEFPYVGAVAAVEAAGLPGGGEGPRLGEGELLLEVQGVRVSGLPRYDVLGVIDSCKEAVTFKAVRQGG
Chain of GRIP2_5, Q9C0E4 (Q9C0E4 544-642): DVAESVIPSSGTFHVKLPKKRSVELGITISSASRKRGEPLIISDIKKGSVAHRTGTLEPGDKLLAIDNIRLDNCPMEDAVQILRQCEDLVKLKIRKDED
Chain of PICK1, Q9NRD5 (Q9NRD5 17-115): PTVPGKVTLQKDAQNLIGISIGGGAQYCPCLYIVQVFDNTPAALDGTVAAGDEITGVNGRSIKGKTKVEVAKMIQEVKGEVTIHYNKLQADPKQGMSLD
Chain of MAGI3_2, Q5TCQ9 (Q5TCQ9 398-503): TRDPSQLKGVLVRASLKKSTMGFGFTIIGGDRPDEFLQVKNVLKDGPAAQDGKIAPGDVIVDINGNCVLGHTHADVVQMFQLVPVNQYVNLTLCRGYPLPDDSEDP
Chain of Inadl_5, Q8NI35 (Q8NI35 673-780): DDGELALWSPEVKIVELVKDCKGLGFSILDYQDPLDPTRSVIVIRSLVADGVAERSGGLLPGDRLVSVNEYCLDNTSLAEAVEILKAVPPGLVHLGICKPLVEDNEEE
Chain of Inadl_9, Q8NI35 (Q8NI35 1530-1615): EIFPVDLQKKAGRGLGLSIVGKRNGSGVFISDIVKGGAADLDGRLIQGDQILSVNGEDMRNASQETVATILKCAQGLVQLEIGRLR
Chain of MAST1, Q9Y2H9 (Q9Y2H9 962-1065): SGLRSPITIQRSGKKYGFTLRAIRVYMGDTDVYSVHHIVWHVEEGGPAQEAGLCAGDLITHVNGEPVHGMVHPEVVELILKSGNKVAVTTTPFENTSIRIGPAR
Chain of DLG1_3, Q12959 (Q12959 457-571): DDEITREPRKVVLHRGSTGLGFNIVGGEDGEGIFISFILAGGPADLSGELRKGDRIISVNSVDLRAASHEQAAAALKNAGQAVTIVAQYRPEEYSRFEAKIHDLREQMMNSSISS
Chain of HTRA1, Q92743 (Q92743 360-477): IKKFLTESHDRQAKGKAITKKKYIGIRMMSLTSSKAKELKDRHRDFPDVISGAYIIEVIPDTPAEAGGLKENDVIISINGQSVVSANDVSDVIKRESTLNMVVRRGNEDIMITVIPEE
Chain of GRID2IP_2, A4D2P6 (A4D2P6 272-370): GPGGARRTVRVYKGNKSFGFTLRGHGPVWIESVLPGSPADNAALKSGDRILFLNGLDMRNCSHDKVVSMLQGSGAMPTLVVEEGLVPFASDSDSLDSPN
Chain of HTRA2, O43464 (O43464 355-458): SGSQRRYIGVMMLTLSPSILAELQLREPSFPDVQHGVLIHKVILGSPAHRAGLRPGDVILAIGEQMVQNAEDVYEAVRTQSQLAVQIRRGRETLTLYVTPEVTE
Chain of IL16_3, Q14005 (Q14005 1107-1207): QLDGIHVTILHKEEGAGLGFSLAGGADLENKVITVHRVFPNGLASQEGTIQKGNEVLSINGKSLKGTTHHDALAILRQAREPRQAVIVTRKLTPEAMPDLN
Chain of Inadl_4, Q8NI35 (Q8NI35 547-651): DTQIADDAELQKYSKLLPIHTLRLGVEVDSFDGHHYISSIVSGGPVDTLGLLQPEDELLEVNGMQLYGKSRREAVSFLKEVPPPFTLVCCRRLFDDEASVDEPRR
Chain of GRIP2_4, Q9C0E4 (Q9C0E4 446-548): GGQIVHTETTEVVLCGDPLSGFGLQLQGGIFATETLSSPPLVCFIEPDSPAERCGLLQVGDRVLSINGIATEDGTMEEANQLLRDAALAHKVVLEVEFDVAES
Chain of Inadl_1, Q8NI35 (Q8NI35 113-229): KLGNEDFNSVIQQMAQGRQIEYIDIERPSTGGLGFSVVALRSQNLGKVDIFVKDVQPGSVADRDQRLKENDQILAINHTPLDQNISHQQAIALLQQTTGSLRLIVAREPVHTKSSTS
Chain of TJP1_2, Q07157 (Q07157 181-274): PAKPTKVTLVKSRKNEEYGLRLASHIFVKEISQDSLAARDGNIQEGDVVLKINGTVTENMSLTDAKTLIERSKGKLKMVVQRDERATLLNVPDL
Chain of TJP1_3, Q07157 (Q07157 416-512): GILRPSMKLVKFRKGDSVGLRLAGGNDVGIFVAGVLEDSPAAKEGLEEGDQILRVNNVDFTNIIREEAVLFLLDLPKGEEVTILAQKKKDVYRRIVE

RGGFGRQTQI [NCBP2L, A6PVI3] was tested, and the pKd (Inadl_4, Q8NI35; [1]) was “below the threshold”, the pKd (Inadl_1, Q8NI35; [1]) was “below the threshold” and the pKd (MAGI1_1, Q96QZ7; [1]) was “below the threshold”. For the same binder, the pKd (HTRA2, O43464; [1]) was “below the threshold”, the pKd (APBA2_2, Q99767; [1]) was “below the threshold” and the pKd (GRIP2_5, Q9C0E4; [1]) was “below the threshold”. The pKd (PICK1, Q9NRD5; [1]) was “below the threshold”, the pKd (DLG1_3, Q12959; [1]) was 4.24 and the pKd (HTRA1, Q92743; [1]) was “below the threshold”. For the same binder, the pKd (Inadl_9, Q8NI35; [1]) was “below the threshold”, the pKd (GRID2IP_2, A4D2P6; [1]) was 4.05 and the pKd (TJP1_3, Q07157; [1]) was “below the threshold”. The pKd (MPDZ_10, O75970; [1]) was “below the threshold”, the pKd (MAST1, Q9Y2H9; [1]) was 4.6 and the pKd (NHERF3_3, Q5T2W1; [1]) was “below the threshold”. The pKd (LNX2_3, Q8N448; [1]) was “below the threshold”, the pKd (LNX2_2, Q8N448; [1]) was “below the threshold” and the pKd (HTRA3, P83110; [1]) was “below the threshold”. The pKd (TJP1_2, Q07157; [1]) was “below the threshold”, the pKd (SNX27, Q96L92; [1]) was “below the threshold” and the pKd (ARHGEF11, O15085; [1]) was “below the threshold”. The pKd (DFNB31_3, Q9P202; [1]) was 3.67, the pKd (MAGI3_2, Q5TCQ9; [1]) was 4.79 and the pKd (DFNB31_2, Q9P202; [1]) was “below the threshold”. The pKd (GORASP2, Q9H8Y8; [1]) was 4.19, the pKd (IL16_3, Q14005; [1]) was “below the threshold” and the pKd (GRIP2_4, Q9C0E4; [1]) was “below the threshold”. The pKd (GOPC, Q9HD26; [1]) was 4.05 and the pKd (Inadl_5, Q8NI35; [1]) was “below the threshold”.

In the case of TGDTLEKFVEGL [CBP, Q92793], the pKd (Inadl_4, Q8NI35; [2]) is reported as “below the threshold”, the pKd (Inadl_1, Q8NI35; [2]) is reported as “below the threshold” and the pKd (MAGI1_1, Q96QZ7; [2]) is reported as “below the threshold”. For the same binder, the pKd (HTRA2, O43464; [2]) was “below the threshold”, the pKd (APBA2_2, Q99767; [2]) was “below the threshold” and the pKd (GRIP2_5, Q9C0E4; [2]) was “below the threshold”. For the same binder, the pKd (PICK1, Q9NRD5; [2]) was “below the threshold”, the pKd (DLG1_3, Q12959; [2]) was “below the threshold” and the pKd (HTRA1, Q92743; [2]) was “below the threshold”. For the same binder, the pKd (Inadl_9, Q8NI35; [2]) was “below the threshold”, the pKd (GRID2IP_2, A4D2P6; [2]) was “below the threshold” and the pKd (TJP1_3, Q07157; [2]) was “below the threshold”. For the same binder, the pKd (MPDZ_10, O75970; [2]) was 3.67, the pKd (MAST1, Q9Y2H9; [2]) was “below the threshold” and the pKd (NHERF3_3, Q5T2W1; [2]) was “below the threshold”. The pKd (LNX2_3, Q8N448; [2]) was “below the threshold”, the pKd (LNX2_2, Q8N448; [2]) was “below the threshold” and the pKd (HTRA3, P83110; [2]) was “below the threshold”. The pKd (TJP1_2, Q07157; [2]) was “below the threshold”, the pKd (SNX27, Q96L92; [2]) was “below the threshold” and the pKd (ARHGEF11, O15085; [2]) was “below the threshold”. For the same binder, the pKd (DFNB31_3, Q9P202; [2]) was “below the threshold”, the pKd (MAGI3_2, Q5TCQ9; [2]) was “below the threshold” and the pKd (DFNB31_2, Q9P202; [2]) was “below the threshold”. The pKd (GORASP2, Q9H8Y8; [2]) was “below the threshold”, the pKd (IL16_3, Q14005; [2]) was “below the threshold” and the pKd (GRIP2_4, Q9C0E4; [2]) was “below the threshold”. For the same binder, the pKd (GOPC, Q9HD26; [2]) was “below the threshold” and the pKd (Inadl_5, Q8NI35; [2]) was “below the threshold”.
